Patent US20220402995A1 (TOSOH, published 2022)

Legend:
[1] = molecular target: T1, VLP2 (virus-like particles of AAV2) (AAV2, UniProt P03135 1-735; P03135 1-598; P03135 1-533); assay: ELISA on VLP2; binding after pH 3.0 51.1°C 15 min / untreated;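 further: binding of the heat-treated AAV-binding protein to VLP2, expressed as a percentage of the binding of the same protein without heating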
T1 construct: Empty AAV2 capsid; background says about 60 protein molecules, VP1:VP2:VP3 = 1:1:10; Immobilised on the ELISA plate
T1 sequence (P03135 whole entry, chain 1 of 3): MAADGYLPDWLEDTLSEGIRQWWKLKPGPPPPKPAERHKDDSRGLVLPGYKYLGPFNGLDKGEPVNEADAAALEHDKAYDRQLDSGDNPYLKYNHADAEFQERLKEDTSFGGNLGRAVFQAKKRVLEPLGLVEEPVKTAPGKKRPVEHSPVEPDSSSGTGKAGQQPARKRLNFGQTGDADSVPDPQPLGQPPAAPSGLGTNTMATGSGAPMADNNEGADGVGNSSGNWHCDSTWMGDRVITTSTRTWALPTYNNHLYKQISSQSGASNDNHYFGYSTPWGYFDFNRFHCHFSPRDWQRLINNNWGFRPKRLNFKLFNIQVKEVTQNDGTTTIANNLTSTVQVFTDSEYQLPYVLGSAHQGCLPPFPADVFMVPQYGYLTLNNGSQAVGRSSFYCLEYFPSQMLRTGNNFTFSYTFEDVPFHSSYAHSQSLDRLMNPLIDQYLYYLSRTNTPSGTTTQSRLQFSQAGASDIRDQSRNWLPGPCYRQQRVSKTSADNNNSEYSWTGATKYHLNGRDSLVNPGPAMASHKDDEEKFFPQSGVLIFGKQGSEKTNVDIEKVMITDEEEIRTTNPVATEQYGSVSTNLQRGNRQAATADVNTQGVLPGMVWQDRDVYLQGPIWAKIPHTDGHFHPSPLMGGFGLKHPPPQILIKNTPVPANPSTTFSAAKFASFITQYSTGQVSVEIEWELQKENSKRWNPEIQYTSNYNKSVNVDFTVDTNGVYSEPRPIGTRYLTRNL
T1 sequence (P03135 139-735, tags left off, chain 2 of 3): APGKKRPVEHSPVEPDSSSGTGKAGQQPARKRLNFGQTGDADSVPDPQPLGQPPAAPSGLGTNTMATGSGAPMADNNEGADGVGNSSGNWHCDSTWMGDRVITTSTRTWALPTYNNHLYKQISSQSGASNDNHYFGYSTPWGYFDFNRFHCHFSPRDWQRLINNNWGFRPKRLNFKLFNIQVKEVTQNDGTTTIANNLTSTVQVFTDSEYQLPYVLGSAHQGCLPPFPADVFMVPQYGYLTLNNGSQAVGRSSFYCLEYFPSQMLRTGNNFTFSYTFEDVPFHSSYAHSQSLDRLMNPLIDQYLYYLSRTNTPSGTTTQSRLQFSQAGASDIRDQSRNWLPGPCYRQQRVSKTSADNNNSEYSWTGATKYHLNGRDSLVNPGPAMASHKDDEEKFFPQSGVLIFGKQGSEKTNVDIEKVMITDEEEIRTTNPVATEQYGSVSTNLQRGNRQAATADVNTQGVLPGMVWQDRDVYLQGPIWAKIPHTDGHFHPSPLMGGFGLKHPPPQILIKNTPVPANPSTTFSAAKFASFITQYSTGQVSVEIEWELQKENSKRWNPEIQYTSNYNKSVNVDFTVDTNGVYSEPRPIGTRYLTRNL
T1 sequence (P03135 203-735, chain 3 of 3): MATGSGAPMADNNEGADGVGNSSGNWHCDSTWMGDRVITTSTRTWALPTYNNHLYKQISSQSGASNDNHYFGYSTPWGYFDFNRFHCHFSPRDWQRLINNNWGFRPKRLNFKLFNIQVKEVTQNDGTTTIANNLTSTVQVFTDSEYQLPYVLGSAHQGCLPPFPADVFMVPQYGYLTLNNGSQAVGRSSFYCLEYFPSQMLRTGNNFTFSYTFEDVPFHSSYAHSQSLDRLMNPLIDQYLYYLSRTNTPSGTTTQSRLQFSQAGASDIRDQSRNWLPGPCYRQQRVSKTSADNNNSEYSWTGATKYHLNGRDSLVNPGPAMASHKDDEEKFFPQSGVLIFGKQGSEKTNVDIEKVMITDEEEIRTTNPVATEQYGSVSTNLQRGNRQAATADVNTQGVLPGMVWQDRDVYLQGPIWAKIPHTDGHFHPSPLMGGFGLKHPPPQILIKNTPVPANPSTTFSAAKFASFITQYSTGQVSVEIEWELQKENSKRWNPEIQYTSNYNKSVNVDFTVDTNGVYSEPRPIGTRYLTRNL
Description: (§1) The residual activity was calculated by dividing the binding activity of AAV-binding protein to VLP2 when the heat treatment was performed by the binding activity of AAV-binding protein to VLP2 when the heat treatment was not performed.

[2] = molecular target: T1, VLP2 (virus-like particles of AAV2); assay: ELISA on VLP2; binding after pH 3.0 61.0°C 15 min / untreated
Description: (3) The culture solution of (2) was centrifuged, and the obtained culture supernatant was diluted 32-fold with ultrapure water. The diluted culture solution in an amount of 60 μL and 60 μL of 0.1 M glycine hydrochloric acid buffer (pH 3.0) were mixed, and heat treatment and acid treatment were performed at 61.0° C. for 15 minutes.
as §1

Binder	Residual activity [%] [1] [%]	Residual activity [%] [2] [%]
AAV-binding protein No. 78 (AVR2 + Leu328Pro, Ile366Phe) (receptor) MGSAGESVQITLPKNEVQPNAYVLQEPPKGETCTYDWQLITHPRDYSGEMEGKHSQFLKLSKLTPGLYEFKVIVEGQNAHSEGYVNVTVKPEPRKNRPPIAIVSPQFQEISLPTTSTVIDGSQSTDDDKIVQYHWEELKGPLREEKISEDTAILKLSKLVPGNYTFSLTVVDSDGATNSTTANLTVNKAVDHHHHHH	55.9	–
AAV-binding protein No. 92 (AVR5e + Thr320Ala, Val381Asp) (receptor) MGSAGESVQIALPKNEVQLNAYVLQEPPKGETCTYDWQLITHPRDYSGEMEGKHSQILKLSKLTPGLYEFKDIVEGQNAHSEGYVNVTVEPEPRKNRPPIAIVSPQFQEISLPTTSTVIDGSQSTDDDKIVQYHWEELKGPLREEKISEDTAILKLSKLVPGNYTFRLTVVDSDGATDSTTANLTVNKAVDHHHHHH	–	52.4
AAV-binding protein No. 85 (AVR5e + Val317Asp) (receptor) MGSAGESDQITLPKNEVQLNAYVLQEPPKGETCTYDWQLITHPRDYSGEMEGKHSQILKLSKLTPGLYEFKVIVEGQNAHSEGYVNVTVEPEPRKNRPPIAIVSPQFQEISLPTTSTVIDGSQSTDDDKIVQYHWEELKGPLREEKISEDTAILKLSKLVPGNYTFRLTVVDSDGATDSTTANLTVNKAVDHHHHHH	–	50.2
AAV-binding protein No. 84 (AVR2 + Pro336Gln, Gln386Arg, Asn487Asp) (receptor) MGSAGESVQITLPKNEVQLNAYVLQEQPKGETCTYDWQLITHPRDYSGEMEGKHSQILKLSKLTPGLYEFKVIVEGRNAHSEGYVNVTVKPEPRKNRPPIAIVSPQFQEISLPTTSTVIDGSQSTDDDKIVQYHWEELKGPLREEKISEDTAILKLSKLVPGNYTFSLTVVDSDGATDSTTANLTVNKAVDHHHHHH	48.4	–
AAV-binding protein No. 102 (AVR5e + Leu328Pro, Lys362Asn, Thr397Ser, Arg406His) (receptor) MGSAGESVQITLPKNEVQPNAYVLQEPPKGETCTYDWQLITHPRDYSGEMEGNHSQILKLSKLTPGLYEFKVIVEGQNAHSEGYVNVSVEPEPRKNHPPIAIVSPQFQEISLPTTSTVIDGSQSTDDDKIVQYHWEELKGPLREEKISEDTAILKLSKLVPGNYTFRLTVVDSDGATDSTTANLTVNKAVDHHHHHH	–	41.1
AAV-binding protein No. 95 (AVR5e + Val326Ala, Lys362Glu) (receptor) MGSAGESVQITLPKNEAQLNAYVLQEPPKGETCTYDWQLITHPRDYSGEMEGEHSQILKLSKLTPGLYEFKVIVEGQNAHSEGYVNVTVEPEPRKNRPPIAIVSPQFQEISLPTTSTVIDGSQSTDDDKIVQYHWEELKGPLREEKISEDTAILKLSKLVPGNYTFRLTVVDSDGATDSTTANLTVNKAVDHHHHHH	–	45.3
AAV-binding protein No. 80 (AVR2 + Gln365Arg, Gly392Cys) (receptor) MGSAGESVQITLPKNEVQLNAYVLQEPPKGETCTYDWQLITHPRDYSGEMEGKHSRILKLSKLTPGLYEFKVIVEGQNAHSECYVNVTVKPEPRKNRPPIAIVSPQFQEISLPTTSTVIDGSQSTDDDKIVQYHWEELKGPLREEKISEDTAILKLSKLVPGNYTFSLTVVDSDGATNSTTANLTVNKAVDHHHHHH	49.9	–
AAV-binding protein No. 88 (AVR5e + Leu376Pro) (receptor) MGSAGESVQITLPKNEVQLNAYVLQEPPKGETCTYDWQLITHPRDYSGEMEGKHSQILKLSKLTPGPYEFKVIVEGQNAHSEGYVNVTVEPEPRKNRPPIAIVSPQFQEISLPTTSTVIDGSQSTDDDKIVQYHWEELKGPLREEKISEDTAILKLSKLVPGNYTFRLTVVDSDGATDSTTANLTVNKAVDHHHHHH	–	41.7
AAV-binding protein No. 86 (AVR5e + Lys371Glu) (receptor) MGSAGESVQITLPKNEVQLNAYVLQEPPKGETCTYDWQLITHPRDYSGEMEGKHSQILKLSELTPGLYEFKVIVEGQNAHSEGYVNVTVEPEPRKNRPPIAIVSPQFQEISLPTTSTVIDGSQSTDDDKIVQYHWEELKGPLREEKISEDTAILKLSKLVPGNYTFRLTVVDSDGATDSTTANLTVNKAVDHHHHHH	–	41.6
AAV-binding protein No. 96 (AVR5e + Val326Glu, Phe379Ser) (receptor) MGSAGESVQITLPKNEEQLNAYVLQEPPKGETCTYDWQLITHPRDYSGEMEGKHSQILKLSKLTPGLYESKVIVEGQNAHSEGYVNVTVEPEPRKNRPPIAIVSPQFQEISLPTTSTVIDGSQSTDDDKIVQYHWEELKGPLREEKISEDTAILKLSKLVPGNYTFRLTVVDSDGATDSTTANLTVNKAVDHHHHHH	–	60.9
AAV-binding protein No. 87 (AVR5e + Lys371Asn) (receptor) MGSAGESVQITLPKNEVQLNAYVLQEPPKGETCTYDWQLITHPRDYSGEMEGKHSQILKLSNLTPGLYEFKVIVEGQNAHSEGYVNVTVEPEPRKNRPPIAIVSPQFQEISLPTTSTVIDGSQSTDDDKIVQYHWEELKGPLREEKISEDTAILKLSKLVPGNYTFRLTVVDSDGATDSTTANLTVNKAVDHHHHHH	–	56.5
AAV-binding protein No. 83 (AVR2 + Ile319Ser, Thr320Ile, Lys399Glu) (receptor) MGSAGESVQSILPKNEVQLNAYVLQEPPKGETCTYDWQLITHPRDYSGEMEGKHSQILKLSKLTPGLYEFKVIVEGQNAHSEGYVNVTVEPEPRKNRPPIAIVSPQFQEISLPTTSTVIDGSQSTDDDKIVQYHWEELKGPLREEKISEDTAILKLSKLVPGNYTFSLTVVDSDGATNSTTANLTVNKAVDHHHHHH	70.2	–
AAV-binding protein No. 79 (AVR2 + Lys338Asn, Asn487Asp) (receptor) MGSAGESVQITLPKNEVQLNAYVLQEPPNGETCTYDWQLITHPRDYSGEMEGKHSQILKLSKLTPGLYEFKVIVEGQNAHSEGYVNVTVKPEPRKNRPPIAIVSPQFQEISLPTTSTVIDGSQSTDDDKIVQYHWEELKGPLREEKISEDTAILKLSKLVPGNYTFSLTVVDSDGATDSTTANLTVNKAVDHHHHHH	73.1	–
AAV-binding protein No. 89 (AVR5e + Glu378Gly) (receptor) MGSAGESVQITLPKNEVQLNAYVLQEPPKGETCTYDWQLITHPRDYSGEMEGKHSQILKLSKLTPGLYGFKVIVEGQNAHSEGYVNVTVEPEPRKNRPPIAIVSPQFQEISLPTTSTVIDGSQSTDDDKIVQYHWEELKGPLREEKISEDTAILKLSKLVPGNYTFRLTVVDSDGATDSTTANLTVNKAVDHHHHHH	–	46.1
AAV-binding protein No. 81 (AVR2 + Phe379Ser, Ser476Gly) (receptor) MGSAGESVQITLPKNEVQLNAYVLQEPPKGETCTYDWQLITHPRDYSGEMEGKHSQILKLSKLTPGLYESKVIVEGQNAHSEGYVNVTVKPEPRKNRPPIAIVSPQFQEISLPTTSTVIDGSQSTDDDKIVQYHWEELKGPLREEKISEDTAILKLSKLVPGNYTFGLTVVDSDGATNSTTANLTVNKAVDHHHHHH	66.3	–
AAV-binding protein No. 82 (AVR2 + Ser476Arg, Thr490Ser) (receptor) MGSAGESVQITLPKNEVQLNAYVLQEPPKGETCTYDWQLITHPRDYSGEMEGKHSQILKLSKLTPGLYEFKVIVEGQNAHSEGYVNVTVKPEPRKNRPPIAIVSPQFQEISLPTTSTVIDGSQSTDDDKIVQYHWEELKGPLREEKISEDTAILKLSKLVPGNYTFRLTVVDSDGATNSTSANLTVNKAVDHHHHHH	70.6	–
AAV-binding protein No. 99 (AVR5e + Gln318Pro, Phe379Tyr, Glu401Val) (receptor) MGSAGESVPITLPKNEVQLNAYVLQEPPKGETCTYDWQLITHPRDYSGEMEGKHSQILKLSKLTPGLYEYKVIVEGQNAHSEGYVNVTVEPVPRKNRPPIAIVSPQFQEISLPTTSTVIDGSQSTDDDKIVQYHWEELKGPLREEKISEDTAILKLSKLVPGNYTFRLTVVDSDGATDSTTANLTVNKAVDHHHHHH	–	54
AAV-binding protein No. 100 (AVR5e + Asn324Asp, Lys362Glu, Val499Glu) (receptor) MGSAGESVQITLPKDEVQLNAYVLQEPPKGETCTYDWQLITHPRDYSGEMEGEHSQILKLSKLTPGLYEFKVIVEGQNAHSEGYVNVTVEPEPRKNRPPIAIVSPQFQEISLPTTSTVIDGSQSTDDDKIVQYHWEELKGPLREEKISEDTAILKLSKLVPGNYTFRLTVVDSDGATDSTTANLTVNKAEDHHHHHH	–	50.1
AAV-binding protein No. 97 (AVR5e + Val332Ala, Lys371Glu) (receptor) MGSAGESVQITLPKNEVQLNAYALQEPPKGETCTYDWQLITHPRDYSGEMEGKHSQILKLSELTPGLYEFKVIVEGQNAHSEGYVNVTVEPEPRKNRPPIAIVSPQFQEISLPTTSTVIDGSQSTDDDKIVQYHWEELKGPLREEKISEDTAILKLSKLVPGNYTFRLTVVDSDGATDSTTANLTVNKAVDHHHHHH	–	49.6
AAV-binding protein No. 101 (AVR5e + Val326Glu, Asn329His, Glu378Val) (receptor) MGSAGESVQITLPKNEEQLHAYVLQEPPKGETCTYDWQLITHPRDYSGEMEGKHSQILKLSKLTPGLYVFKVIVEGQNAHSEGYVNVTVEPEPRKNRPPIAIVSPQFQEISLPTTSTVIDGSQSTDDDKIVQYHWEELKGPLREEKISEDTAILKLSKLVPGNYTFRLTVVDSDGATDSTTANLTVNKAVDHHHHHH	–	48.5
AAV-binding protein No. 90 (AVR5e + Gly392Cys) (receptor) MGSAGESVQITLPKNEVQLNAYVLQEPPKGETCTYDWQLITHPRDYSGEMEGKHSQILKLSKLTPGLYEFKVIVEGQNAHSECYVNVTVEPEPRKNRPPIAIVSPQFQEISLPTTSTVIDGSQSTDDDKIVQYHWEELKGPLREEKISEDTAILKLSKLVPGNYTFRLTVVDSDGATDSTTANLTVNKAVDHHHHHH	–	53.3
AAV-binding protein No. 98 (AVR5e + Leu376Pro, Asn492Asp) (receptor) MGSAGESVQITLPKNEVQLNAYVLQEPPKGETCTYDWQLITHPRDYSGEMEGKHSQILKLSKLTPGPYEFKVIVEGQNAHSEGYVNVTVEPEPRKNRPPIAIVSPQFQEISLPTTSTVIDGSQSTDDDKIVQYHWEELKGPLREEKISEDTAILKLSKLVPGNYTFRLTVVDSDGATDSTTADLTVNKAVDHHHHHH	–	47.6
AAV-binding protein No. 94 (AVR5e + Val326Glu, Asn329His) (receptor) MGSAGESVQITLPKNEEQLHAYVLQEPPKGETCTYDWQLITHPRDYSGEMEGKHSQILKLSKLTPGLYEFKVIVEGQNAHSEGYVNVTVEPEPRKNRPPIAIVSPQFQEISLPTTSTVIDGSQSTDDDKIVQYHWEELKGPLREEKISEDTAILKLSKLVPGNYTFRLTVVDSDGATDSTTANLTVNKAVDHHHHHH	–	44.9
